Starred links: 1 amine or outer side, 2 acyl side, 3 side chain; linkers in the order of their positions; H or OH if unused. Non-standard residues stand in square brackets, D forms with d. Groups on a side chain read outwards from the residue. *: point of attachment. C20 diacid = O=C(O)CCCCCCCCCCCCCCCCCCC(=O)*; C18 diacid = O=C(O)CCCCCCCCCCCCCCCCC(=O)*; C16 diacid = O=C(O)CCCCCCCCCCCCCCC(=O)*; γGlu = O=C(O)[C@H](CCC(=O)[*:2])N[*:1]; εLys = N[C@@H](CCCCN[*:1])C(=O)[*:2]; Trx = NC[C@H]1CC[C@H](C(=O)O)CC1; AEEA = NCCOCCOCC(=O)O; Aib = CC(C)(N)C(=O)O
B1: Compound 0539 (peptide)
peptide: H[Aib]EGTFTSDVSSYLEGQAAREFIAWLVRGRGQEPK([AEEA-AEEA-γGlu-Trx-C20 diacid])GQAPEASELSTAALGRLSAELHELATLPRTETGSGSP-NH2
B2: Compound 0056 (peptide)
peptide: H[Aib]EGTFTSDVSSYLEGQAAK([AEEA-AEEA-γGlu-C18 diacid])EFIAWLVRGRGK([AEEA-AEEA-γGlu-C18 diacid])QEPGQEPEASELSTAALGRLSAELHELATLPRTETGSGSP-NH2
B3: Compound 0518 (peptide)
peptide: H[Aib]EGTFTSDVSK([AEEA-AEEA-γGlu-Trx-C20 diacid])YLEEQAAREFIAWLVRGRGGGGGEASELSTAALGRLSAELHELATLPRTETGSGSP-NH2
B4: Compound 0565 (peptide)
peptide: H[Aib]EGTFTSDVSK([AEEA-AEEA-γGlu-C20 diacid])YLEEQAAREFIAWLVRGRGGGGGEASELSTAALGRLSAELHELATLPRTETGSGSP-NH2
B5: Compound 0512 (peptide)
peptide: H[Aib]EGTFTSDVSSYLEEQAAREFIAWLVRGRK([AEEA-AEEA-γGlu-Trx-C20 diacid])GGEASELSTAALGRLSAELHELATLPRTETGSGSP-NH2
B6: Compound 0576 (peptide)
peptide: H[Aib]EGTFTSDVSK([AEEA-AEEA-γGlu-C16 diacid])YLEEQAARKFIEWLVRGRGEGGGGGASELSTAALGRLSAELHELATLPRTETGSGSP-NH2
modifications: not fully specified (residue 21)
B7: Compound 0511 (peptide)
peptide: H[Aib]EGTFTSDVSRYLEEQAAREFIEWLVRGRK([AEEA-AEEA-γGlu-Trx-C20 diacid])GGGGEASELSTAALGRLSAELHELATLPRTETGSGSP-NH2
B8: Compound 0506 (peptide)
peptide: H[Aib]EGTFTSDVSSYLEEQAAREFIAWLVRGRKGGGGEASELSTAALGRLSAELHELATLPRTETGSGSP-NH2
modifications: not fully specified (residue 31)
B9: Compound 0503 (peptide)
peptide: H[Aib]EGTFTSDVSSYLEEQAAREFIEWLVRGRK([AEEA-AEEA-γGlu-Trx-C20 diacid])GGGGEASELSTAALGRLSAELHELATLPRTETGSGSP-NH2
B10: Compound 0504 (peptide)
peptide: H[Aib]EGTFTSDVSSYLEEQAAREFIAWLVRGRPK([AEEA-AEEA-γGlu-Trx-C20 diacid])GGGGEASELSTAALGRLSAELHELATLPRTETGSGSP-NH2
B11: Compound 0575 (peptide)
peptide: H[Aib]EGTFTSDVSK([AEEA-AEEA-γGlu-C16 diacid])YLEEQAARK([AEEA-AEEA-γGlu-C16 diacid])FIAWLVRGRQEGGGGGASELSTAALGRLSAELHELATLPRTETGSGSP-NH2
B12: Compound 0577 (peptide)
peptide: H[Aib]EGTFTSDVSK([AEEA-AEEA-γGlu-C16 diacid])YLEEQAARKFIEWLVRGRGEASELSTAALGRLSAELHELATLPRTETGSGSP-NH2
modifications: not fully specified (residue 21)
B13: Compound 0561 (peptide)
peptide: H[Aib]EGTFTSDVSSYLEEQAARK([AEEA-AEEA-γGlu-Trx-C20 diacid])FIAWLVRGRGGGGGEASELSTAALGRLSAELHELATLPRTETGSGSP-NH2
B14: Compound 0562 (peptide)
peptide: H[Aib]EGTFTSDVSSYLEEQAARK([AEEA-AEEA-γGlu-C20 diacid])FIAWLVRGRGGGGGEASELSTAALGRLSAELHELATLPRTETGSGSP-NH2
B15: Compound 0529 (peptide)
peptide: H[Aib]EGTFTSDVSSYLEGQAAREFIAWLVRGRGQEPK([AEEA-AEEA-γGlu-C20 diacid])GQAPEASELSTAALGRLSAELHELATLPRTETGSGSP-NH2
B16: Compound 0564 (peptide)
peptide: H[Aib]EGTFTSDVSK([AEEA-Lys])YLEEQAAREFIAWLVRGRGGGGGEASELSTAALGRLSAELHELATLPRTETGSGSP-NH2
modifications: also: Lys on Ado carries two C16 diacid-gGlu-Ado-Ado groups, on its alpha and epsilon amines
B17: Compound 0502 (peptide)
peptide: H[Aib]EGTFTSDVSSYLEEQAAREFIAWLVRGRK([AEEA-AEEA-γGlu-C20 diacid])GGGGEASELSTAALGRLSAELHELATLPRTETGSGSP-NH2
B18: Compound 0509 (peptide)
peptide: H[Aib]EGTFTSDVSSYLEEQAARK([AEEA-AEEA-γGlu-C16 diacid])FIAWLVRGRGGGGGEASELSTAALGRLSAELHK([AEEA-AEEA-γGlu-C16 diacid])LATLPRTETGSGSP-NH2
B19: Compound 0528 (peptide)
peptide: H[Aib]EGTFTSDVSK([AEEA-AEEA-γGlu-C16 diacid])YLEEQAAREFIAWLVRGRK([AEEA-AEEA-γGlu-C16 diacid])GGGGEASELSTAALGRLSAELHELATLPRTETGSGSP-NH2
B20: Compound 0516 (peptide)
peptide: H[Aib]EGTFTSDVSK([AEEA-AEEA-γGlu-C16 diacid])YLEEQAARKFIAWLVRGRGGGGGEASELSTAALGRLSAELHELATLPRTETGSGSP-NH2
modifications: not fully specified (residue 21)
B21: Compound 0552 (peptide)
peptide: H[Aib]EGTFTSDVSSYLEEQAAREFIAWLVRGRK([εLys-AEEA-AEEA-γGlu-C20 diacid])GGGGEASELSTAALGRLSAELHELATLPRTETGSGSP-NH2

Key:
human GLP-1 receptor = human GLP-1 receptor (human, UniProt P43220 24-463); experiment: cell-based or functional assay
[1] = target: T1, human amylin-3 (a) receptor (human, UniProt P30988 25-474; O60896 24-148); experiment: cell-based or functional assay
T1 sequence (looked up) 1: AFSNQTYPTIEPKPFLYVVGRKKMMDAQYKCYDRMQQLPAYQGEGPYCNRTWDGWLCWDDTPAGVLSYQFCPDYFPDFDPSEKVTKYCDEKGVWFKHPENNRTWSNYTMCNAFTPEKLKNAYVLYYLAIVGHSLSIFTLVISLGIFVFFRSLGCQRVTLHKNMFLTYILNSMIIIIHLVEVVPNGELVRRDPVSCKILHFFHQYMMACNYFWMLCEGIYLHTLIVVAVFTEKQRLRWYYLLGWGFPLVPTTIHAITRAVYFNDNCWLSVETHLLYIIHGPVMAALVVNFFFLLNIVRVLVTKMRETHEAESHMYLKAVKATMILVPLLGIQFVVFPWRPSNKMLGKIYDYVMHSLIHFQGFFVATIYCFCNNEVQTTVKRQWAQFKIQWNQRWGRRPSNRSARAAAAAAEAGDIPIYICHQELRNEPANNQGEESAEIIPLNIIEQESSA
T1 sequence (looked up) 2: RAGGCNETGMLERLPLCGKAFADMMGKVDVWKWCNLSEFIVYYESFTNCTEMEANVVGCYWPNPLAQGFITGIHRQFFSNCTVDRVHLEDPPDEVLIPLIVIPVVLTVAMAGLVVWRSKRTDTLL

Row | Binder | Human GLP-1R potency [EC50 (pM)] (human GLP-1 receptor) [pM] | Human AmyR3 potency [EC50 (pM)] [1] [pM]
1 | B1 | 5 | 12.1
2 | B2 | 41.4 | 120
3 | B3 | 3.4 | 4.4
4 | B4 | 6.4 | 6.2
5 | B5 | 7.6 | 10.8
6 | B6 | 2.9 | 10.1
7 | B7 | 8.8 | 8.4
8 | B8 | 5.8 | 9.8
9 | B9 | 6.5 | 7.7
10 | B10 | 8.3 | 6
11 | B11 | 5.6 | 8.3
12 | B12 | 5.6 | 19.1
13 | B13 | 17.5 | 10.7
14 | B14 | 19.3 | 4.1
15 | B15 | 6.4 | 14.1
16 | B16 | 24.5 | 14.5
17 | B17 | 8.4 | 9
18 | B18 | 7.1 | 29.9
19 | B19 | 3.8 | 22
20 | B20 | 3.3 | 8.9
21 | B21 | 4.7 | 6.9

Source: US20260132182A1 (published 2026)
